Measured values taken from patent publication US20230321261A1 (published 2023).

T1: Mus musculus AXL (p33-HAMm-AXL) (human (Homo sapiens) AXL with mouse …, UniProt Q00993 1-888 (mouse entry))
T1 construct: also called hsAXL-mmECD
T1 chain: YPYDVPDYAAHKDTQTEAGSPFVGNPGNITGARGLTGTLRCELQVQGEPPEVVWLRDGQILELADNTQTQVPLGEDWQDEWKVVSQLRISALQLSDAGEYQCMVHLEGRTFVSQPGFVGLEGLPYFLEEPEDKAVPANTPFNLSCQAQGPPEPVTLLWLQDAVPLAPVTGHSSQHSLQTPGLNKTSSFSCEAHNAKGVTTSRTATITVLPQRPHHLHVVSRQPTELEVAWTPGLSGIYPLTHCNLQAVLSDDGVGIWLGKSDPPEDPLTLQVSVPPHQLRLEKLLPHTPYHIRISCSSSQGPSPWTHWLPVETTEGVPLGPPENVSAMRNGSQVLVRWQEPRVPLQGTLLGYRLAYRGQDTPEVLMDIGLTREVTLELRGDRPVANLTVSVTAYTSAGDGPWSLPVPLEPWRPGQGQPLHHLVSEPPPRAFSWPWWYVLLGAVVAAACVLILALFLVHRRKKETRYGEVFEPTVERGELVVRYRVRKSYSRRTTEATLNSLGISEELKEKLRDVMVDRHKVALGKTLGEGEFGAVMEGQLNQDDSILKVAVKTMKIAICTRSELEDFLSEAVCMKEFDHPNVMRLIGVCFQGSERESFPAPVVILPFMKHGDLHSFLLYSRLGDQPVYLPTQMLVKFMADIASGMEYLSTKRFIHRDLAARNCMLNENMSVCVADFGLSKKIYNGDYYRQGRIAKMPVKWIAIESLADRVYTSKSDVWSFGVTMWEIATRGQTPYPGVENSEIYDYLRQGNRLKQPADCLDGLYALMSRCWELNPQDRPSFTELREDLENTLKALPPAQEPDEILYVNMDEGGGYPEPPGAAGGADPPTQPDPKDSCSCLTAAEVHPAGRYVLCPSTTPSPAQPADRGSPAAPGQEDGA

T2: Homo sapiens AXL - Mus musculus FN2 domain (p33-AXL-mFN2) (human (Homo sapiens) AXL with mouse …, UniProt P30530 26-894)
T2 construct: also called hsAXL-mmFN2
T2 chain: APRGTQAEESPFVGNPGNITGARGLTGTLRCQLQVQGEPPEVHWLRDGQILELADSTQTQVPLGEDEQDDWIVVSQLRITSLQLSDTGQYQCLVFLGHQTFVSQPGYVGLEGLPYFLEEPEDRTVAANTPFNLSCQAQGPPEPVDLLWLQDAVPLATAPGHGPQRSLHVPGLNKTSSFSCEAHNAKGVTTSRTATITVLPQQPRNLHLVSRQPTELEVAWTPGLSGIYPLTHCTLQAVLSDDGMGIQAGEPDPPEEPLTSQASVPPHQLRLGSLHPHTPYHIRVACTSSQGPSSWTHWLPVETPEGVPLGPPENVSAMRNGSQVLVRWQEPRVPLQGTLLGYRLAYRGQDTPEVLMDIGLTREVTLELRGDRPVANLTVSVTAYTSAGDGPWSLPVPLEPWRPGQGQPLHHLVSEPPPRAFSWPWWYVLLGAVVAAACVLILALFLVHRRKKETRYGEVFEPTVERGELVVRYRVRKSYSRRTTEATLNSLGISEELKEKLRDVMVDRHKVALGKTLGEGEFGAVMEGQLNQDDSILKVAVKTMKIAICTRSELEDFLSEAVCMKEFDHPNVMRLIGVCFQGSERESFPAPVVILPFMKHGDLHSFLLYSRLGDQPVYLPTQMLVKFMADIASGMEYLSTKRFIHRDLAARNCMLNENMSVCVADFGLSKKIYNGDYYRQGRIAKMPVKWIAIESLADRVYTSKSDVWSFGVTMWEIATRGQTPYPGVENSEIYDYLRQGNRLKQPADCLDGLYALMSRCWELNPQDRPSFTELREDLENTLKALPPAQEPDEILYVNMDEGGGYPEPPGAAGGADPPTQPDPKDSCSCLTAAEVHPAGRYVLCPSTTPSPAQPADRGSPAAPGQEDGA

B1: IgG1-AXL-061 (antibody, V domains shown)
VH: QVQLVQSGAEVKKPGASVKVSCKASGYAFTGYGISWVRQAPGQGLEWIGWISAYNGNTNYVQNLQDRVTMTTDTSTSTAYMELRSLRSDDTAVYYCARDHISMLRGIIIRNYWGQGTLVTVSS
VL: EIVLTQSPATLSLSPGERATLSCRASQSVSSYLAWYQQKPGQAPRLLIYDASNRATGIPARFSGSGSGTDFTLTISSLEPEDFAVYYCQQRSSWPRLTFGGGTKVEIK
notes: expressed as IgG1,κ
B2: IgG1-AXL-137 (antibody, V domains shown)
VH: QVQLVQSGAEVKKPGSSVKVSCKASGGTFSRYAISWVRQAPGQGLEWMGRIIPIVGIANYAQKFQGRVTLTADKSTSTAYMELSSLRSEDTAVYYCAREAGYSSSWYAEYFQHWGQGTLVTVSS
VL: not shown
notes: expressed as IgG1,κ
B3: IgG1-AXL-613 (antibody, V domains shown)
VH: QVQLVQSGAEVKKPGSSVKVSCKASGGTFSSYAINWMRQAPGQGLEWMGRIIPIFGIVNYAQKFQGRVTLTADKSTSTAYMELSSLRSEDTAVYYCARRGNYYGSGSPDVFDIWGQGTMVTVSS
VL: not shown
notes: expressed as IgG1,κ
B4: IgG1-AXL-726 (antibody, V domains shown)
VH: QVQLQQWGAGLLKPSETLSLTCAIDGGSFSGYYWSWIRQPPGKGLEWIGEISHSGRTNYNPSLKSRVTISIDTSKNQFSLKLSSVAAADTAVYYCARFITMIRGAIITHFDYWGQGALVTVSS
VL: DIQMTQSPSSLSASVGDRVTITCRASQGISSWLAWYQQKPEKAPKSLIYAASSLQSGVPSRFSGSGSGTDFTLTISSLQPEDFATYYCQQYHSYPYTFGQGTKLEIK
notes: expressed as IgG1,κ

Experiments:
[1] = molecular target: T1, Mus musculus AXL (p33-HAMm-AXL); assay: flow cytometry, transfected HEK293F cells
[2] = molecular target: T2, Homo sapiens AXL - Mus musculus FN2 …; assay: flow cytometry, transfected HEK293F cells

Row | Binder | binding result [1] | binding result [2]
1 | B1 | no binding (tested: 1 µg/mL) | –
2 | B2 | no binding (tested: 1 µg/mL) | –
3 | B3 | no binding (tested: 1 µg/mL) | –
4 | B4 | – | no binding (tested: 1 µg/mL)
